The results in this text go back to publication PMC7949025, “Biophysical characterization of the ETV6 PNT domain polymerization interfaces” (The Journal of Biological Chemistry, 2021).

T1: biotinylated A93D-PNT domain (ETV6 residues 43-135, A93D, with Avitag) (human, UniProt P41212 43-135, A93D, biotin on the Avitag (~50 to 95% biotinylated))
T1 construct: ETV6, human, residues 43-135; made from the V112E construct by introducing A93D and E112V; also called biotinylated A93D-PNT domain ligand; A93D-PNT domain ligand; source: E. coli BL21 (λDE3) co-transformed with pET21a-BirA, purified (Ni-NTA, thrombin cleavage); not shown: His6, N-terminal, cleaved; Avitag, N-terminal, kept
T1 sequence (looked up): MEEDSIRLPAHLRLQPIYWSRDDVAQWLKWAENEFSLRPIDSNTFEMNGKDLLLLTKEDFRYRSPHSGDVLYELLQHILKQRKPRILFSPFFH

T2: biotinylated V112E-PNT domain (ETV6 residues 43-135, V112E, with Avitag) (human, UniProt P41212 43-135, V112E, biotin on the Avitag (~50 to 95% biotinylated))
T2 construct: ETV6, human, residues 43-135 of V112E ETV6; also called biotinylated V112E-PNT domain ligand; V112E-PNT domain ligand; source: E. coli BL21 (λDE3) co-transformed with pET21a-BirA, purified (Ni-NTA, thrombin cleavage); not shown: His6, N-terminal, cleaved; Avitag, N-terminal, kept
T2 sequence (looked up): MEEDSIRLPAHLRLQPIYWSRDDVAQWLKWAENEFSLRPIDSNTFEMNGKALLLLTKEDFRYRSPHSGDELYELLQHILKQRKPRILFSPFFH

B1: V112E-PNT domain (ETV6 residues 40-125 with the V112E mutation) (domain or fragment, human, UniProt P41212 40-125, looked up)
chain: ALRMEEDSIRLPAHLRLQPIYWSRDDVAQWLKWAENEFSLRPIDSNTFEMNGKALLLLTKEDFRYRSPHSGDELYELLQHILKQRK
notes: ETV6 PNT domain fragment, human, residues 40-125; expressed as residues 1-125 and cut by thrombin at the internal site V37-P38-R39/A40; 15N- or 13C/15N-labelled or unlabelled in NMR; also called V112E-PNT domain analyte; source: E. coli BL21 (λDE3), purified (Ni-NTA, thrombin cleavage, Superdex S75; size exclusion omitted for SPR); not shown: His6, N-terminal, cleaved
B2: I59A-V112E-PNT domain (domain or fragment, human, UniProt P41212 40-125, looked up)
chain: ALRMEEDSIRLPAHLRLQPAYWSRDDVAQWLKWAENEFSLRPIDSNTFEMNGKALLLLTKEDFRYRSPHSGDELYELLQHILKQRK
notes: ETV6 PNT domain, human; source: E. coli BL21 (λDE3), purified (Ni-NTA, thrombin cleavage); not shown: His6, N-terminal, cleaved
B3: K92A-V112E-PNT domain (domain or fragment, human, UniProt P41212 40-125, looked up)
chain: ALRMEEDSIRLPAHLRLQPIYWSRDDVAQWLKWAENEFSLRPIDSNTFEMNGAALLLLTKEDFRYRSPHSGDELYELLQHILKQRK
notes: as for B2
B4: E88A-V112E-PNT domain (domain or fragment, human, UniProt P41212 40-125, looked up)
chain: ALRMEEDSIRLPAHLRLQPIYWSRDDVAQWLKWAENEFSLRPIDSNTFAMNGKALLLLTKEDFRYRSPHSGDELYELLQHILKQRK
notes: as for B2
B5: D101A-V112E-PNT domain (domain or fragment, human, UniProt P41212 40-125, looked up)
chain: ALRMEEDSIRLPAHLRLQPIYWSRDDVAQWLKWAENEFSLRPIDSNTFEMNGKALLLLTKEAFRYRSPHSGDELYELLQHILKQRK
notes: as for B2
B6: E100A-V112E-PNT domain (domain or fragment, human, UniProt P41212 40-125, looked up)
chain: ALRMEEDSIRLPAHLRLQPIYWSRDDVAQWLKWAENEFSLRPIDSNTFEMNGKALLLLTKADFRYRSPHSGDELYELLQHILKQRK
notes: as for B2
B7: A93D-PNT domain (ETV6 residues 40-125 with the A93D mutation) (domain or fragment, human, UniProt P41212 40-125, looked up)
chain: ALRMEEDSIRLPAHLRLQPIYWSRDDVAQWLKWAENEFSLRPIDSNTFEMNGKDLLLLTKEDFRYRSPHSGDVLYELLQHILKQRK
notes: ETV6 PNT domain fragment, human, residues 40-125; expressed as residues 1-125 and cut by thrombin at the internal site V37-P38-R39/A40; 15N- or 13C/15N-labelled or unlabelled in NMR; also called A93D-PNT domain analyte; source: E. coli BL21 (λDE3), purified (Ni-NTA, thrombin cleavage, Superdex S75; size exclusion omitted for SPR); not shown: His6, N-terminal, cleaved
B8: S78A-A93D-PNT domain (domain or fragment, human, UniProt P41212 40-125, looked up)
chain: ALRMEEDSIRLPAHLRLQPIYWSRDDVAQWLKWAENEFALRPIDSNTFEMNGKDLLLLTKEDFRYRSPHSGDVLYELLQHILKQRK
notes: as for B2
B9: P107A-A93D-PNT domain (domain or fragment, human, UniProt P41212 40-125, looked up)
chain: ALRMEEDSIRLPAHLRLQPIYWSRDDVAQWLKWAENEFSLRPIDSNTFEMNGKDLLLLTKEDFRYRSAHSGDVLYELLQHILKQRK
notes: as for B2
B10: K99A-A93D-PNT domain (domain or fragment, human, UniProt P41212 40-125, looked up)
chain: ALRMEEDSIRLPAHLRLQPIYWSRDDVAQWLKWAENEFSLRPIDSNTFEMNGKDLLLLTAEDFRYRSPHSGDVLYELLQHILKQRK
notes: as for B2
B11: R103A-A93D-PNT domain (domain or fragment, human, UniProt P41212 40-125, looked up)
chain: ALRMEEDSIRLPAHLRLQPIYWSRDDVAQWLKWAENEFSLRPIDSNTFEMNGKDLLLLTKEDFAYRSPHSGDVLYELLQHILKQRK
notes: as for B2
B12: S47A-A93D-PNT domain (domain or fragment, human, UniProt P41212 40-125, looked up)
chain: ALRMEEDAIRLPAHLRLQPIYWSRDDVAQWLKWAENEFSLRPIDSNTFEMNGKDLLLLTKEDFRYRSPHSGDVLYELLQHILKQRK
notes: as for B2

For one assay, the target named is T1, biotinylated A93D-PNT domain (ETV6 …). As to the kind of experiment: SPR; biotinylated A93D-PNT domain ligand captured on streptavidin Sensor Chip SA, PNT domain analytes flowed; Biacore X100, 25 °C, HBS-EP+ (10 mM HEPES, 150 mM NaCl, 3 mM EDTA, 0.05% v/v Tween-20, pH 7.4); analyte 0.2-60 nM, re-run at 20-6000 nM if KD > 60 nM. Conditions: both partners purified. The essentials:
(§1)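 Association and dissociation rate constants and the equilibrium dissociation constant were obtained with the kinetics/affinity wizard of the Biacore software. For these measurements, Avitag-biotinylated ETV6 PNT domain (residues 43-135) at 50 μg/ml in HBS-EP+ was captured on a streptavidin Sensor Chip SA in a Biacore X100 at 25 °C. Analytes were flowed at 0.2, 2, 20, 40 and 60 nM, with weaker binders re-run at 20-6000 nM.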
In general, Kd refers to the free concentration of one partner at which half of the binding sites on the other are occupied at equilibrium, for simple one-to-one binding. High values mean lower affinity, low ones higher affinity. A word on the koff: it is the first-order rate constant of dissociation. A lower koff goes with slow dissociation. The term kon denotes the rate constant with which the complex forms. Low readings indicate slow association, high ones fast association. Turning to B1, the Kd came out at 5.1 nM, the koff was 0.0023 s⁻¹ and the kon was determined as 440000 M⁻¹ s⁻¹.

B2: binding was characterised by a dissociation constant (Kd) of 5.8 nM, the koff turned out to be 0.0025 s⁻¹ and the kon amounted to 430000 M⁻¹ s⁻¹.

Turning to B3, the Kd came out at 62 nM, the koff came to 0.022 s⁻¹ and the kon was 350000 M⁻¹ s⁻¹.

B4 displayed a Kd of 8.1 nM, a koff of 0.004 s⁻¹ and a kon of 500000 M⁻¹ s⁻¹.

In turn, B5 showed a Kd of 400 nM, a koff of 0.0025 s⁻¹ and a kon of 6300 M⁻¹ s⁻¹.

Consider B6, for which the affinity, expressed as Kd, was 7 nM; the koff came to 0.0035 s⁻¹; the kon worked out at 500000 M⁻¹ s⁻¹.

The next assay deals with T2, biotinylated V112E-PNT domain (ETV6 …). Put plainly: SPR; biotinylated V112E-PNT domain ligand captured on streptavidin Sensor Chip SA, PNT domain analytes flowed; Biacore X100, 25 °C, HBS-EP+ (10 mM HEPES, 150 mM NaCl, 3 mM EDTA, 0.05% v/v Tween-20, pH 7.4); analyte 0.2-60 nM, re-run at 20-6000 nM if KD > 60 nM. To be noted: both partners purified. The essentials: as §1
For orientation: Surface plasmon resonance follows binding to a sensor surface in real time, without labels.
Consider B7, for which the Kd was 7.5 nM, the koff came out at 0.0015 s⁻¹ and the kon was found to be 200000 M⁻¹ s⁻¹.

B8 displayed a Kd of 3.3 nM, a koff of 0.0093 s⁻¹ and a kon of 2.8e+06 M⁻¹ s⁻¹.

With B9, the Kd stood at 8.1 nM, the koff came to 0.0021 s⁻¹ and the kon turned out to be 260000 M⁻¹ s⁻¹.

Regarding B10, the Kd came to 930 nM, the koff worked out at 0.0023 s⁻¹ and the kon was determined as 2400 M⁻¹ s⁻¹.

On to B11, for which binding was put at a Kd of 21 nM, the koff was determined as 0.0054 s⁻¹ and the kon was found to be 250000 M⁻¹ s⁻¹.

For B12, the Kd came to 6.9 nM, the koff turned out to be 0.0014 s⁻¹ and the kon is 210000 M⁻¹ s⁻¹.
